Experimental data taken from US20120165265A1, “Calcium Signaling Modulators Involving STIM and ORAI Proteins” (priority 2009, published 2012).

Experiments:
Orai1 [1] = assay: Puncta formation of STIM1 variants by confocal microscopy in HEK 293 cells; format: cell-based; details: expressed alone in HEK 293 cells
Description: (§1) Confocal Microscopy. 6 h after transfection, HEK 293 cells were plated onto sterilized coverslips coated with poly-D-lysine and maintained in complete DMEM for an additional 12-18 h before imaging in Ringer's solution containing (in mM): 155 NaCl, 4.5 KCl, 2 CaCl2, 1 MgCl2, 10 D-glucose, and 5 Na-Hepes, pH 7.4. To deplete stores, cells were treated with 1 μM TG in Ca2+-free Ringer's (prepared by substituting 2 mM MgCl2 and 1 mM EGTA for CaCl2) for 10 min. eGFP and mCherry were excited simultaneously at 488 and 594 nm, respectively, on a Leica SP2 AOBS inverted confocal microscope equipped with a PL APO 100×/NA 1.4 oil immersion objective. Fluorescence emissions were collected at 615-840 nm (mCherry) and 510-570 nm (eGFP). All experiments were performed at 22-25° C.
Quantitation of STIM1 and Orai1 Recruitment into Puncta. Colocalization of eGFP-Orai1 and mCh-STIM1 variants was analyzed from background-corrected confocal image pairs acquired before and after store depletion. Puncta have two defining characteristics: (1) because they are sites of accumulation, STIM1 and Orai1 fluorescence intensities in puncta are greater than the respective mean intensities measured across the entire cell, and (2) because STIM1 and Orai1 co-localize in puncta, their fluorescence covariance is high. […]

Orai1 [2] = target: T1, Orai1 (Homo sapiens, UniProt Q96D31); assay: as above; format: cell-based; design: expressed in transfected cells; host or cells: HEK 293; details: coexpressed with eGFP-Orai1, TG
T1 sequence (Q96D31 whole entry): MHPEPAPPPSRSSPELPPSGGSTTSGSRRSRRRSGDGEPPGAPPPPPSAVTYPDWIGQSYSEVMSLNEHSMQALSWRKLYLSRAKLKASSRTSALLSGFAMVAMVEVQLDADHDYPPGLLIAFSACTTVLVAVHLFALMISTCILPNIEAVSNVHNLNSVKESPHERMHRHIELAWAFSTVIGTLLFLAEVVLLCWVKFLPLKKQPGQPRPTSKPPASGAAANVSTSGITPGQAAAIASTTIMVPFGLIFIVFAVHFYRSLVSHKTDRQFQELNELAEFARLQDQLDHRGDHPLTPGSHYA
Description: as §1
Quantitation of STIM1 and Orai1 Recruitment into Puncta. Colocalization of eGFP-Orai1 and mCh-STIM1 variants was analyzed from background-corrected confocal image pairs acquired before and after store depletion. Puncta have two defining characteristics: (1) because they are sites of accumulation, STIM1 and Orai1 fluorescence intensities in puncta are greater than the respective mean intensities measured across the entire cell, and (2) because STIM1 and Orai1 co-localize in puncta, their fluorescence covariance is high. For each STIM1/Orai1 image pair, we computed the covariance of each pixel as (Si−s) (Oi−o), where Si and Oi are the STIM1 and Orai1 fluorescence of pixel i, and s and o are the mean STIM1 and Orai1 fluorescence of the entire cell. A threshold criterion for puncta was set using the pre-depletion image pair. The mean and s.d. of the covariance values were calculated from pixels for which both Si>s and Oi>o, and a covariance threshold was set equal to the mean+2×s.d. of this pre-depletion condition. Binary masks were applied to the pre- and post-depletion image pairs to isolate pixels for which Si>s and Oi>o and whose covariance exceeds the pre-depletion threshold. […] Integrated STIM1 or Orai1 puncta intensity was calculated from the masked images and expressed as a fraction of the total fluorescence intensity in the unmasked image. […]
The Role of CAD in Orai1 Binding and Activation by STIM1. […] To address this, we measured the ability of mCherry-tagged STIM1 variants containing CAD mutations to co-cluster with eGFP-Orai1 and activate Ca^2+ entry in response to TG (FIG. 7). STIM1-Orai1 colocalization was quantified as the fraction of total STIM1 and Orai1 fluorescence that was recruited to regions of high fluorescence covariance (FIG. 13), while Ca^2+ influx was measured with single cell Ca^2+ imaging. For each set of experiments we measured mCherry and GFP fluorescence to confirm that differences in the activity of the various STIM1 constructs were not due to differences in expression level (FIG. 14).

Orai1 [3] = target: T1, Orai1; assay: Whole-cell patch clamp recording of ICRAC in transfected HEK 293 cells; format: cell-based; design: expressed in transfected cells; host or cells: HEK 293
Description: Electrophysiology. HEK 293 cells were transfected 8-24 h prior to electrophysiology experiments with STIM1- and Orai1-derived constructs in a 1:1 mass ratio using Lipofectamine 2000. […] ICRAC in cells cultured without LaCl3 was similar to that in cells cultured with LaCl3, but most cells without LaCl3 died soon after break-in.
Currents were recorded using standard whole-cell patch clamp techniques (Prakriya and Lewis, 2001). Pipettes of resistance 2-5 MΩ were filled with an internal solution containing (in mM) 150 Cs aspartate, 8 MgCl2, 10 EGTA, and 10 HEPES (pH 7.2 with CsOH). Currents were sampled at 5 kHz and filtered at 2 kHz, and all voltages were corrected for the junction potential of the pipette solution relative to Ringer's in the bath (−13 mV).
Patch-clamp Experiments. Pipette-membrane seals were formed in 2 mM Ca^2+ Ringer's solution. After break-in to the whole-cell configuration, voltage stimuli consisting of a 100-ms step to −100 mV followed by a 100-ms ramp from −100 to +100 mV were delivered every 5 s from the holding potential of +30 mV. After the currents reached a steady level (˜300 s for wild-type STIM1), the external solution was changed via a multibarrel local perfusion pipette to a high-Ca^2+ Ringer's containing (in mM) 130 NaCl, 4.5 KCl, 20 CaCl2, 1 MgCl2, 10 D-glucose, and 5 HEPES (pH 7.4 with NaOH). All data were leak-corrected using the current elicited in 20 mM Ca^2+ Ringer's+10 μM LaCl3 at the end of the each experiment. LaCl3 and 2-APB were added directly to parent solutions on the day of the experiment from 10 mM and 100 mM stocks in H2O and DMSO, respectively.
As a definitive test for CRAC channel activation, we conducted whole-cell patch clamp recordings from HEK 293 cells transiently transfected with myc-Orai1 and either YFP-STIM1 or YFP-CAD. In cells expressing full length YFP-STIM1, ICRAC appeared over several minutes following break-in, consistent with the typical slow activation seen in response to passive store depletion (FIG. 2D). […] In contrast, inward current was present from the moment of break-in in cells expressing YFP-CAD (FIG. 2E). This current was identified as ICRAC based on its dependence on extracellular Ca^2+, inward rectification, sequential enhancement and inhibition by 2-APB, and inhibition by La^3+ (FIG. 2E and FIG. 10 C, D). ICRAC was not observed at break-in in HEK 293 cells transfected with YFP or YFP-CAD in the absence of Orai1 (FIG. 2F), consistent with the low level of endogenous STIM1 and Orai1 in these cells. […] Inactivation was restored by addition of STIM1 residues carboxy-terminal to CAD.

Orai1 [4] = target: T1, Orai1; assay: Store-operated Ca2+ entry by STIM1 variants, single cell Ca2+ imaging; format: cell-based; design: expressed in transfected cells; host or cells: HEK 293; details: coexpressed with eGFP-Orai1, TG
Description: For FIG. 7, cells were loaded as above with 2 μM fura-2/AM for 25 min. Ratiometric Ca2+ imaging was performed with 350 and 380 nm excitation in 2 mM Ca2+ Ringer's solution on an Axiovert 35 inverted microscope using a VideoProbe imaging system as described (Bautista et al., 2002). mCherry-positive cells were identified using a 540±12 nm excitation and a 580LP emission filter (Chroma).
The Role of CAD in Orai1 Binding and Activation by STIM1. A key question is whether CAD is responsible for the clustering and activation of CRAC channels by full-length STIM1 following store depletion. To address this, we measured the ability of mCherry-tagged STIM1 variants containing CAD mutations to co-cluster with eGFP-Orai1 and activate Ca^2+ entry in response to TG (FIG. 7). STIM1-Orai1 colocalization was quantified as the fraction of total STIM1 and Orai1 fluorescence that was recruited to regions of high fluorescence covariance (FIG. 13), while Ca^2+ influx was measured with single cell Ca^2+ imaging. For each set of experiments we measured mCherry and GFP fluorescence to confirm that differences in the activity of the various STIM1 constructs were not due to differences in expression level (FIG. 14).

CRAC channels = target: T2, CRAC channels (Homo sapiens, UniProt Q96D31); assay: [Ca2+]i imaging in HEK 293 cells expressing STIM1 fragment and Orai1; format: cell-based
T2 construct: expressed in transfected cells; host or cells: HEK 293
T2 sequence (Q96D31 whole entry, the tested form may be a part): as the sequence (Q96D31 whole entry) above
Description: Ca^2+ Imaging. For FIG. 2, cells were loaded at 37° C. in DMEM with 1 μM fura-2/AM for 30 min. Ratiometric Ca2+ imaging was performed at 340 and 380 nm in 2 mM Ca2+ Ringer's solution with a Nikon Eclipse 2000-U inverted microscope equipped with a fluorescent arc lamp, excitation filter wheel, and a Hamamatsu Orca CCD camera. Images were collected using Openlab (Improvision) and analyzed using Igor Pro.
To determine if CAD activates store operated Ca^2+ influx in cells, we measured [Ca^2+]i in HEK 293 cells expressing CAD and Orai1.

Orai1 [5] = target: T1, Orai1; assay: Co-immunoprecipitation with Orai1 in HEK 293T cells; format: binding; design: expressed in transfected cells; host or cells: HEK 293; details: 150 mM salt, 1% Triton X-100
Description: Immunoprecipitation and Immunoblot Analysis. Transfected HEK 293T cells (12-24 h) were washed with PBS and lysed in 50 mM Tris-HCl pH 7.5, 150 mM NaCl, 1% Triton X-100, and protease inhibitors. Lysates were spun at 12,000 rpm for 10 min, and the supernatant was incubated with anti-Flag M2 agarose beads (Sigma), or anti-myc or -HA antibody followed by IgG agarose beads (Pierce). Lysates and immunoprecipitates were subjected to SDS-PAGE, probed with HRP-conjugated secondary antibody and detected by enhanced chemiluminescence (Pierce).
CAD Associates with Orai1 in vivo and in vitro. Because cytosolic CAD is a potent activator of Orai1 channels and is not associated with the ER, we hypothesized that CAD binds to Orai1. To test this idea, we first expressed YFP-CAD with or without myc-Orai1 in HEK 293 cells and examined its intracellular localization. […] To provide additional evidence that CAD and Orai1 are part of the same protein complex we expressed Flag-tagged CAD and GFP-tagged Orai1 in HEK 293T cells and immunoprecipitated CAD with anti-Flag antibodies. GFP-myc-Orai1 was detected in the immunoprecipitates from cells co-expressing CAD and Orai1 but not from cells expressing CAD or Orai1 alone (FIG. 3B).
Thus, CAD and Orai1 form a protein complex in mammalian cells.

endogenous CRAC channels = assay: NFAT-luciferase assay in HEK 293T (NFAT-Luc) cells; format: cell-based; details: HEK 293T NFAT-luc cells transfected with STIM1 construct; PMA (1 μM) alone
Description: NFAT-luciferase Assays. HEK 293T cells were co-transfected with the indicated constructs and an NFAT reporter gene (firefly luciferase gene C-terminal to 4×-NFAT site from the IL-2 gene). Cotransfection with the Renilla luciferase (pRLTK) gene driven by the TK promoter was used to control for cell number and transfection efficiency. After 12-18 h, cells were treated with a control DMSO solution (mock), PMA (1 μM), or PMA plus TG (1 μM) for 8 h. Assays were performed using the Dual Luciferase Reporter assay system (Promega). For each condition, luciferase activity was measured with 4 samples taken from duplicate wells using a 96-well automated luminometer (Turner Biosystems). Results are represented as the ratio of firefly to Renilla luciferase activity.
Identifying a Minimal Cytosolic Region of STIM1 that Opens the CRAC Channel. To identify the CRAC-activating domain of STIM1, we first tested a series of soluble cytosolic STIM1 fragments for their ability to activate an NFAT-dependent luciferase reporter gene (NFAT-luc). A series of constructs were generated by progressive truncation of the full-length cytosolic region of STIM1 (FIG. 2A; STIM1234-685; CT-STIM1) and were transiently expressed in a HEK 293T cell line containing NFAT-luc. […]

EE-Orai1-His8 = target: T3, EE-Orai1-His8 (Homo sapiens, UniProt Q96D31); assay: GST pull-down assay with purified proteins; format: binding; details: in vitro
T3 construct: made in house; host or cells: Hi5 insect cells (baculovirus, pVL1393)
T3 sequence (Q96D31 whole entry): as above
Description: GST Pull-down Assays. For GST pull-down assays, either GST-CAD (0.16 μM) or GST (0.15 μM) was incubated with EE-Orai1-His8 (0.1 μM) for 1 h in buffer containing (in mM): 20 Tris-HCl (pH 8.0), 150 NaCl, 20 imidazole, and 1 DTT with protease inhibitors. After addition of glutathione sepharose the beads were centrifuged, washed with the above buffer, and the precipitated proteins were eluted with boiling SDS and analyzed by SDS-PAGE and Western blotting.
CAD Binds Directly to Orai1. To test for direct binding between the CAD and Orai1 we generated a GST-tagged CAD peptide in E. coli and an Orai1 protein containing C-terminal octa-histidine and N-terminal EEYMPME (“EE”) tags in insect Hi5 cells. We incubated purified GST-CAD or GST alone with purified EE-Orai1-His8 and used glutathione beads to precipitate the complexes.

Orai1 [6] = target: T1, Orai1; assay: Intracellular localization of YFP-CAD in HEK 293 cells; format: cell-based; design: expressed in transfected cells; host or cells: HEK 293; details: with myc-Orai1
Description: as §1
CAD Associates with Orai1 in vivo and in vitro. Because cytosolic CAD is a potent activator of Orai1 channels and is not associated with the ER, we hypothesized that CAD binds to Orai1. To test this idea, we first expressed YFP-CAD with or without myc-Orai1 in HEK 293 cells and examined its intracellular localization. […] GFP-myc-Orai1 was detected in the immunoprecipitates from cells co-expressing CAD and Orai1 but not from cells expressing CAD or Orai1 alone (FIG. 3B).

## STIM1-DK: STIM1 lacking the polybasic C-terminal domain (aa 672-685)
Orai1 [1]
  puncta formation after store depletion: failed to form puncta
Orai1 [2]
  puncta formation with Orai1 after store depletion: colocalized in puncta
Orai1 [3]; HEK 293 cells coexpressing STIM1 variant and Orai1
  ICRAC after store depletion: activated ICRAC

## STIM11-440: STIM1 1-448 with the final 8 aa deleted
Orai1 [2]
  puncta formation with Orai1 after store depletion: retained the ability to form puncta and cluster Orai1
Orai1 [4]
  Ca2+ entry (SOCE) after store depletion: failed to activate SOCE

## CT-STIM1: full-length cytosolic region of STIM1 (aa 234-685) [reference compound]
CRAC channels; HEK 293T cells coexpressing construct and Orai1
  resting [Ca2+]i: did so
CRAC channels; HEK 293 cells coexpressing construct and Orai1, no store depletion
  [Ca2+]i / CRAC channel activation: did not elevate resting [Ca^2+]i
Orai1 [5]
  co-immunoprecipitation with Orai1: unable to detect any interaction
Endogenous CRAC channels
  activation of NFAT-dependent luciferase reporter gene (NFAT-luc): did not activate

## STIM11-448: STIM1 truncated from the C-terminus to the end of the CAD
Orai1 [2]
  puncta formation with Orai1 after store depletion: formed puncta with Orai1
Orai1 [4]
  Ca2+ entry (SOCE) after store depletion: activated Ca^2+ entry

## STIM1 C437G: STIM1 C437G mutant
Orai1 [2]
  puncta formation with Orai1 after store depletion: formed pronounced puncta with Orai1
Orai1 [4]
  Ca2+ entry (SOCE) after store depletion: only marginally activated SOCE

## GST-CAD: GST-tagged CAD peptide generated in E. coli
EE-Orai1-His8
  co-precipitation of purified Orai1 with glutathione beads: co-precipitated Orai1

## YFP-CAD: YFP-tagged CAD expressed in HEK 293 cells
Orai1 [6]
  localization on coexpression of Orai1: dramatic recruitment of YFP-CAD to the plasma membrane
Orai1 [3]; HEK 293 cells cotransfected with construct and myc-Orai1, from break-in
  constitutive ICRAC: constitutively active
